The DeepSol protein solubility set

Test: soluble on expression in E. coli; label from the status in PepcDB or PDB records

Soluble on expression in E. coli, soluble:
MAHHHHHHVREEKLRLRKQIIEHMNSLSKERYTTLSEQIVFSLYEQKEWAEAKTIGITLSMENEVNTYPIIEKAWKEGKRVVVPKCNKETRTMSFRQISNFDQLETVYMNLREPIPALTEEVNADEIDLQIVPGVAYTERGERIGYGGGYYDRYLVHYKGKTLSLAYSFQMVEHIPVEPFDKNVEKIITEKGTMVKNGLV, MSLEKQKGLAIITGASQGIGAVIAAGLATDGYRVVLIARSKQNLEKVHDEIMRSNKHVQEPIVLPLDITDCTKADTEIKDIHQKYGAVDILVNAAAMFMDGSLSEPVDNFRKIMEINVIAQYGILKTVTEIMKVQKNGYIFNVASRAAKYGFADGGIYGSTKFALLGLAESLYRELAPLGIRVTTLCPGWVNTDMAKKAGTPFKDEEMIQPDDLLNTIRCLLNLSENVCIKDIVFEMKKSIIEGHHHHHH

Soluble on expression in E. coli, not soluble:
QGQPLANFEGGQPMEALQQWTAAVVKAVEGKLPGITGDDAEAEPAEDPRFEPATEALNAGDFDAAIAVYEEILRHEPKNQMALQARDNARLLSRLKDADRSVDPIAVADADLQDVDKAFAAADAEITTGKVEEAFDRLIELLPNEKVRTRLLELYSVFEPSDSRVQAARSKMASKLF, MSRDTGDNLDRNQSGNLPMANVMDAYLSRRSVMRGSLGAAIAMIAGTGLTGCFDGGGSDHDDPVTEPPVTEPPVTEPEVPKLALGFQSIPGSRTDACVVAAGYSAYVLAPWGTPLNSNGNPWKSDGSNTSTDQANAMGMHHDGMHFFPINGSSEDGLLAINFEYIDTAALHPAGPTTDVNGKRPVEEVRKEINAHGAGVVRLQKINGRWQVVDNDPLNRRFTTASRMEITGPLRGTDHVKTKYSTAGTHCRGTNNNCGNGYTPWGTYLTCEENWPGIFVNKGTRPEDQRRIGVGTSSGQYKWESAAGDASEVDDEFARFDVTVKGASATDDYRNEASTYGYIVEIDPYNSSTLATKRTALGRFRHEGCAPGLPVAGKPLVWYMGDDSNNEYLYKWVSTAVWDPADATPADRLATGAKYLDQGKLYVARFNADGTGVWLLLDVATATTAGSTLGALYGDLPGIILNTRGAGDAVGATPMDRPEWTTVNPLNGDVYLTLTNNSARTPDKVDAANPRGPNRHGHIIRWHDSDDQLSFTWDIFVFGANAAGTADINRSGLTELNQFASPDGMSFDSRGVLWFETDNGETTLTDYTNDQLLAVIPTDLVDASGKQVPVNAQNQVDLRRFFVGPNGCEVTGITFTPDNKTLFVNIQHPDNWPYTDKATDATPAGATVRPRASTVVIQRIDGGEIGTV, MRRTTRYPVSGESSLWNVYKTVSFWKVMKNFIIIQIARYTPFLSVKNWLYRTFLRMKVGKKTSFALMVMPDIMFPEKITVGDNSIIGYNTTLLAHEYLIREYRLGEIVIGNEVMIGANTTILPGVRIGDGAIVSAGTLVHKDVPSGAFVGGNPMRVIYTKEQMEAREGSY, MAHHHHHHMLTRSERGMCNGRVPTKGLVGFLSGSSTGTEWRDEYLGVNAIVHGPAEKRIGVPNGVTFQGSWAEWPVGDMGQTVPYYFANNKFTLVATVSIHEVPKEDSSPIPLIGVRMNDTSSTVLFALSYTHDRKWLAIPEDAGGVEDLFGWEPHTTYQAVLRMTLDEWTAFVDQREIDRKSYNENLFDSHRISHFYIGGDSNDQSATDGHVTVTNVMLYNEDLYNNELYEPNASKVNIPSLGVEEHPTGQVTSTEVSVVHESKSEEITASCAELNEDDTDKQEEETASMIRCLQRPLPRLTRDHLFLSLPSQRRAQGMTVQRTMSSFTRAKRPSKPRRMKRINRCNGVQTCSHKTHSQRN, MPNKNGVGKKSPSTSKSSNNNKRREPEFRYEEKTAVHGGKTKYEEKTVVHGGKTKNVVAKKVPSKASVIVDKKASTTETTVPITVKKSLLSISTAYDRTVTEEKEKEKPKKKEKEKWSGEEASIKFVKSLGSINLKDEYDEIQKLPVQTERCKMWQSHSSRNRHNDSKCYDHNRIIVQMCKDDYINGSKINVPHFTPSIYLVQLPKMDSVDAVEEFWRVVFHEQCQTVHIIARPEELTNPAIDKLFCQESGAWLYANGFFVNTRKVEKKENAKADMFVVELLPEGCSNAVMCSVYLHTYWKPLFGPDRFGAQIRAAHQIAKNENGNSPTVIASVNGSGRNAALLTLAVVEDQLTRGKEPKISEIVRTIREQRPQSVDSYIQYVSLYMATNWLIKTKLPSGHEVVSKIKKFNEKATRSLPGSMMKTPTEEL
